Laboratory results reported in article PMC9817892.

Columns and labels:
[1] = molecular target: p63 (UniProt Q9H3D4); assay: co-immunoprecipitation, Western blot; conditions: reference: Nur77 wild type; sites S351
[2] = molecular target: p63 (UniProt Q9H3D4); assay: co-immunoprecipitation from metastatic tissue; conditions: reference: Nur77 wild type; sites S351

binding against the reference [1]: lost
binding against the reference [2]: weaker
Substance: Nur77 (from UniProt P22736) Nur77 S351A
